This assay addresses T1, human α9α10 nAChR (Homo sapiens, UniProt Q9GZZ6+Q9UGM1).
T1 construct: expressed in transfected cells; host or cells: HEK293T
In words: FLIPR calcium assay of HEK293T cells co-transfected with α9α10 nAChR and cDNA clones, response evoked by 200 μM ACh. It is filed as cell-based. To be noted: for FLIPR response evoked by 200 μM ACh: HEK293T transfected with α9α10 nAChR and the named protein; for functional expression of co-transfected α9α10 nAChR in cDNA library screen: HEK293T, 20,000 cDNA clones; for functional expression of co-transfected α9α10 nAChR in cDNA library screen / combined effect of TMIE and CHAT on functional responses from α9α10 nAChR / FLIPR Response (Fold/Baseline): 200 μM ACh; for combined effect of TMIE and CHAT on functional responses from α9α10 nAChR: HEK293T; for FLIPR Response (Fold/Baseline): 180 s. Here is the method: Human embryonic kidney 293T (HEK293T) cells were cultured in high glucose DMEM medium supplemented with 10% FBS, sodium pyruvate and penicillin/streptomycin. Prior to transfection, cells were seeded at ˜80-90% confluence in 384-well fluorescence imaging plate reader (FLIPR) assay plates. After a 4 hour (hr) incubation, wells of cells were individually co-transfected with human α9α10 nAChR plus one of 20,000 clones from cDNA libraries encoding most all human proteins (Origene Technologies; Rockville, Md.; Broad Institute; Cambridge, Mass.) using Fugene HD (Promega; Madison, Wis.) according to the manufacture's protocol. After two days incubation, cells were washed three times with assay buffer (137 mM NaCl, 4 mM KCl, 2 mM CaCl2, 1 mM MgCl2, 5 mM glucose, 10 mM HEPES pH7.4) and loaded with Calcium5 dye (Molecular Devices; San Jose, Calif.) and 1.25 mM probenecid for 1 hr at room temperature (RT). After three washes, the plates were placed in the FLIPR stage.
To further characterize the regulation of α9α10 nAChR expression, HEK293T cells were co-transfected with α9α10 nAChR and each of CHAT, TMIE, TMEM100, TMEM132A, TMEM132C, TMEM132D, TMEM132E and TNFRSF10A individually and in combination (Table 2).

[1] abbreviates: HEK293T co-transfected with α9α10 nAChR + CHAT plus the named gene.
Where [2] appears, read: HEK293T co-transfected with α9α10 nAChR plus the named gene.

T1 sequence (Q9UGM1 23-479): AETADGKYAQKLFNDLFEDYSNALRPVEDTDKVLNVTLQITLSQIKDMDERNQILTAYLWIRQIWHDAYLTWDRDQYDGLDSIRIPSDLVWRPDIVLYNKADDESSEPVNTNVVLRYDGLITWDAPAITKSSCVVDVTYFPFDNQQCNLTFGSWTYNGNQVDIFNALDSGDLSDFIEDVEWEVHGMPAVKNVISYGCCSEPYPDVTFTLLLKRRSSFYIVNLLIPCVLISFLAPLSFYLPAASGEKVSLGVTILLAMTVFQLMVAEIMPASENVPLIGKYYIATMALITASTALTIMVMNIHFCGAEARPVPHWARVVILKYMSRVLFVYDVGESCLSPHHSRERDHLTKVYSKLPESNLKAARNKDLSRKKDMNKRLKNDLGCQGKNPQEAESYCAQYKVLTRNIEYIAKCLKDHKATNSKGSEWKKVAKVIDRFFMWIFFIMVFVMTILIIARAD
T1 sequence (Q9GZZ6 25-450): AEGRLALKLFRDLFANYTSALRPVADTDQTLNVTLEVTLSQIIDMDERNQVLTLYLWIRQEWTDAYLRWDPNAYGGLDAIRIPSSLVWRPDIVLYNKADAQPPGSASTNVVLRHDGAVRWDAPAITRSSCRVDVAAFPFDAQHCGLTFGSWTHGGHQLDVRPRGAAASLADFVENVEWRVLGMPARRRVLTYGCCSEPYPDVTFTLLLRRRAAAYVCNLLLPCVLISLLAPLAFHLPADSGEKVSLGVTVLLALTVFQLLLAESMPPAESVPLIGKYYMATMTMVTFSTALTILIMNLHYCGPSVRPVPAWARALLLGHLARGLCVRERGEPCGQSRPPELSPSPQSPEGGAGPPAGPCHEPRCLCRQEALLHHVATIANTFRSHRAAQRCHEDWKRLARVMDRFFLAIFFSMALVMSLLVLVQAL

B1: CHAT: Choline O-acetyltransferase, SEQ ID NO: 3, co-transfected cDNA clone (protein, listed as Homo sapiens)
chain: MAAKTPSSEESGLPKLPVPPLQQTLATYLQCMRHLVSEEQFRKSQAIVQQFGAPGGLGETLQQKLLERQEKTANWVSEYWLNDMYLNNRLALPVNSSPAVIFARQHFPGTDDQLRFAASLISGVLSYKALLDSHSIPTDCAKGQLSGQPLCMKQYYGLFSSYRLPGHTQDTLVAQNSSIMPEPEHVIVACCNQFFVLDVVINFRRLSEGDLFTQLRKIVKMASNEDERLPPIGLLTSDGRSEWAEARTVLVKDSTNRDSLDMIERCICLVCLDAPGGVELSDTHRALQLLHGGGYSKNGANRWYDKSLQFVVGRDGTCGVVCEHSPFDGIVLVQCTEHLLKHMTQSSRKLIRADSVSELPAPRRLRWKCSPEIQGHLASSAEKLQRIVKNLDFIVYKFDNYGKTFIKKQKCSPDAFIQVALQLAFYRLHRRLVPTYESASIRRFQEGRVDNIRSATPEALAFVRAVTDHKAAVPASEKLLLLKDAIRAQTAYTVMAITGMAIDNHLLALRELARAMCKELPEMFMDETYLMSNRFVLSTSQVPTTTEMFCCYGPVVPNGYGACYNPQPETILFCISSFHSCKETSSSKFAKAVEESLIDMRDLCSLLPPTESKPLATKEKATRPSQGHQP
In the case of B1, the “FLIPR response evoked by 200 μM ACh” value is “significant FLIPR responses”; the “functional expression of co-transfected α9α10 nAChR in cDNA library screen” value (“functional expression” for short) was “enabled functional expression”; the “combined effect of TMIE and CHAT on functional responses from α9α10 nAChR” value was “synergized to enhance functional responses”.

B2: TMEM132A: Transmembrane protein 132A, SEQ ID NO: 5, co-transfected cDNA clone (protein, listed as Homo sapiens)
chain: MCARMAGRTTAAPRGPYGPWLCLLVALALDVVRVDCGQAPLDPVYLPAALELLDAPEHFRVQQVGHYPPANSSLSSRSETFLLLQPWPRAQPLLRASYPPFATQQVVPPRVTEPHQRPVPWDVRAVSVEAAVTPAEPYARVLFHLKGQDWPPGSGSLPCARLHATHPAGTAHQACRFQPSLGACVVELELPSHWFSQASTTRAELAYTLEPAAEGPGGCGSGEENDPGEQALPVGGVELRPADPPQYQEVPLDEAVTLRVPDMPVRPGQLFSATLLLRHNFTASLLTLRIKVKKGLHVTAARPAQPTLWTAKLDRFKGSRHHTTLITCHRAGLTEPDSSPLELSEFLWVDFVVENSTGGGVAVTRPVTWQLEYPGQAPEAEKDKMVWEILVSERDIRALIPLAKAEELVNTAPLTGVPQHVPVRLVTVDGGGALVEVTEHVGCESANTQVLQVSEACDAVFVAGKESRGARGVRVDFWWRRLRASLRLTVWAPLLPLRIELTDTTLEQVRGWRVPGPAEGPAEPAAEASDEAERRARGCHLQYQRAGVRFLAPFAAHPLDGGRRLTHLLGPDWLLDVSHLVAPHARVLDSRVASLEGGRVVVGREPGVTSIEVRSPLSDSILGEQALAVTDDKVSVLELRVQPVMGISLTLSRGTAHPGEVTATCWAQSALPAPKQEVALSLWLSFSDHTVAPAELYDRRDLGLSVSAEEPGAILPAEEQGAQLGVVVSGAGAEGLPLHVALHPPEPCRRGRHRVPLASGTAWLGLPPASTPAPALPSSPAWSPPATEATMGGKRQVAGSVGGNTGVRGKFERAEEEARKEETEAREEEEEEEEEMVPAPQHVTELELGMYALLGVFCVAIFIFLVNGVVFVLRYQRKEPPDSATDPTSPQPHNWVWLGTDQEELSRQLDRQSPGPPKGEGSCPCESGGGGEAPTLAPGPPGGTTSSSSTLARKEAGGRRKRVEFVTFAPAPPAQSPEEPVGAPAVQSILVAGEEDIRWVCEDMGLKDPEELRNYMERIRGSS
For B2, the “functional expression” value is listed as “enabled functional expression”. The “FLIPR Response (Fold/Baseline)” value under setting [1] is listed as 2.5 Fold/Baseline. The “FLIPR Response (Fold/Baseline)” value under setting [2] amounted to 0.3 Fold/Baseline.

B3: TMIE: Transmembrane inner ear expressed protein, SEQ ID NO: 4, co-transfected cDNA clone (protein, listed as Homo sapiens)
chain: MAGWPGAGPLCVLGGAALGVCLAGVAGQLVEPSTAPPKPKPPPLTKETVVFWDMRLWHVVGIFSLFVLSIIITLCCVFNCRVPRTRKEIEARYLQRKAAKMYTDKLETVPPLNELTEVPGEDKKKKKKKKKDSVDTVAIKVEEDEKNEAKKKKGEK
B3: the “FLIPR response evoked by 200 μM ACh” value is on record as “significant FLIPR responses”; the “functional expression” value was “enabled functional expression”; the “combined effect of TMIE and CHAT on functional responses from α9α10 nAChR” value is given as “synergized to enhance functional responses”. The “FLIPR Response (Fold/Baseline)” value under setting [1] is recorded as 2.2 Fold/Baseline. Further, the “FLIPR Response (Fold/Baseline)” value under setting [2] is given as 0.7 Fold/Baseline.

B4: TMEM132D: Transmembrane protein 132D, SEQ ID NO: 7, co-transfected cDNA clone (protein, listed as Homo sapiens)
chain: MCPSEMGTLWHHWSPVLISLAALFSKVTEGRGILESIQRFSLLPTYLPVTYHINNADVSFFLKEANQDIMRNSSLQSRVESFLIYKSRRLPVLNASYGPFSIEQVVPQDLMLPSNPFGFTNKFSLNWKLKAHILRDKVYLSRPKVQVLFHIMGRDWDDRSAGEKLPCLRVFAFRETREVRGSCRLQGDLGLCVAELELLSSWFSPPTVVAGRRKSVDQPEGTPVELYYTVHPGGERGDCVREDARRSNGIRTGHSDIDESGPPLQRIGSIFLYQTHRKPSLRELRLDNSVAIHYIPKTVRKGDVLTFPVSISRNSTEDRFTLRAKVKKGVNIIGVRASSPSIWDVKERTDYTGKYAPAVIVCQKKAAGSENSADGASYEVMQIDVEVEEPGDLPATQLVTWQVEYPGEITSDLGVSKIYVSPKDLIGVVPLAMEAEILNTAILTGKTVAVPVKVVSVEDDGTVTELLESVECRSSDEDVIKVSDRCDYVFVNGKEMKGKVNVVVNFTYQHLSSPLEMTVWVPRLPLQIEVSDTELNQIKGWRVPIVSSRRPAGDSEEEEDDERRGRGCTLQYQHAMVRVLTQFVAEAAGPGGHLAHLLGSDWQVDITELINDFMQVEEPRIAKLQGGQILMGQELGMTTIQILSPLSDTILAEKTITVLDEKVTITDLGVQLVTGLSLSLQLSPGSNRAIFATAVAQELLQRPKQEAAISCWVQFSDGSVTPLDIYDGKDFSLMATSLDEKVVSIHQDPKFKWPIIAAETEGQGTLVKVEMVISESCQKSKRKSVLAVGTANIKVKFGQNDANPNTSDSRHTGAGVHMENNVSDRRPKKPSQEWGSQEGQYYGSSSMGLMEGRGTTTDRSILQKKKGQESLLDDNSHLQTIPSDLTSFPAQVDLPRSNGEMDGNDLMQASKGLSDLEIGMYALLGVFCLAILVFLINCVTFALKYRHKQVPFEEQEGMSHSHDWVGLSNRTELLENHINFASSQDEQITAIDRGMDFEESKYLLSTNSQKSINGQLFKPLGPIIIDGKDQKSEPPTSPTSKRKRVKFTTFTAVSSDDEYPTRNSIVMSSEDDIKWVCQDLDPGDCKELHNYMERLHENV
Take B4: the “functional expression” value was “enabled functional expression”. Further, under setting [1], the “FLIPR Response (Fold/Baseline)” value was determined as 2.6 Fold/Baseline. Also, the “FLIPR Response (Fold/Baseline)” value under setting [2] is 0.4 Fold/Baseline.

B5: TMEM132C: Transmembrane protein 132C, SEQ ID NO: 6, co-transfected cDNA clone (protein, listed as Homo sapiens)
chain: MRSEGAAPGPAAPLCGALSLLLGALLGKVIEGHGVTDNIQRFSSLPPYLPVSYHILRAETSFFLKEANQDLLRNSSLQARVESFFTYKTRQPPVLNASYGPFSVEKVVPLDLMLTSNFLGPTNKFSFDWKLKAHILRDKVYLSRPKVQVLFHIMGRDWDDHGAGEKLPCLRVFAFRETREVRGSCRLKGDLGLCVAELELLSSWFSAPTVGAGRKKSMDQPEGTPVELYYTVHPGNERGDCAGGDFRKGNAIRPGKDGLEETTSHLQRIGTVGLYRAQDSAQLSELRLDGNVVIWLPSRPVKQGEVVTAYVTISSNSSVDLFILRAKVKKGVNILSAQTREPRQWGVKQEVGSGGKHVTATVACQRLGPSPRNRSSSLFNEVVQMNFEIASFSSLSGTQPITWQVEYPRKGTTDIAVSEIFVSQKDLVGIVPLAMDTEILNTAVLTGKTVAMPIKVVSVEENSAVMDISESVECKSTDEDVIKVSERCDYIFVNGKEIKGKMDAVVNFTYQYLSAPLCVTVWVPRLPLQIEVSDTELSQIKGWRVPIVTNKRPTRESEDEDEEERRGRGCALQYQHATVRVLTQFVSEGAGPWGQPNYLLSPNWQFDITHLVADFMKLEEPHVATLQDSRVLVGREVGMTTIQVLSPLSDSILAEKTITVLDDKVSVTDLAIQLVAGLSVALYPNAENSKAVTAVVTAEEVLRTPKQEAVFSTWLQFSDGSVTPLDIYDTKDFSLAATSQDEAVVSVPQPRSPRWPVVVAEGEGQGPLIRVDMTIAEACQKSKRKSILAVGVGNVRVKFGQNDADSSPGGDYEEDEIKNHASDRRQKGQHHERTGQDGHLYGSSPVEREEGALRRATTTARSLLDNKVVKNSRADGGRLAGEGQLQNIPIDFTNFPAHVDLPKAGSGLEENDLVQTPRGLSDLEIGMYALLGVFCLAILVFLINCATFALKYRHKQVPLEGQASMTHSHDWVWLGNEAELLESMGDAPPPQDEHTTIIDRGPGACEESNHLLLNGGSHKHVQSQIHRSADSGGRQGREQKQDPLHSPTSKRKKVKFTTFTTIPPDDSCPTVNSIVSSNDEDIKWVCQDVAVGAPKELRNYLEKLKDKA
On to B5, for which the “functional expression” value is “enabled functional expression”. For the same molecule, the “FLIPR Response (Fold/Baseline)” value under setting [1] is given as 2.0 Fold/Baseline. Besides, the “FLIPR Response (Fold/Baseline)” value under setting [2] is listed as 0.7 Fold/Baseline.

Source of the values: US12227771B2, “Expression systems and methods of use thereof” (Janssen Pharmaceutica NV, priority 2019, dated 2025).
